# Results published in PMC2116103.
# Target: IGF1 receptor on embryonic chick spinal cord motoneurons (chick (endogenous in E6 spinal cord motoneurons))
"neurite growth from E6 chick motoneurons in vitro, half-maximal effect [nM]","neurite growth from E6 chick motoneurons in vitro, half-maximal response [nM]",Substance
20,–,Bovine pancreatic insulin (ligand)
0.2,–,"Highly purified human IGF2 (insulin-like growth factor 2), unlabeled (from UniProt P01344 25-91) (ligand)"
–,0.2,"Recombinant human IGF1 (insulin-like growth factor 1), unlabeled (from UniProt P05019 22-118) (ligand)"
